Measured values: publication PMC6593972

Molecular target: fluorescein isothiocyanate (FITC)-casein
Test: fluorescence polarisation; fluorescence anisotropy; FITC-casein 100 nM, ClpB (WT or mutant) varied; Reaction buffer, 10 min at 30°C, 2 mM ATP; black 384 well plates; Kd by nonlinear regression

fluorescein isothiocyanate (FITC)-casein, sequence (P02662 16-214): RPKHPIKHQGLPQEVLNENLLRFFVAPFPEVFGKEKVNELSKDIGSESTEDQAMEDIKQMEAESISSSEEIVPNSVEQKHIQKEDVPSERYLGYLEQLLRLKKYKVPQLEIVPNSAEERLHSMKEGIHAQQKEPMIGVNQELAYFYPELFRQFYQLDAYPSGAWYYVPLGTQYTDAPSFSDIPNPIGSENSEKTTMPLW
ClpB wild-type, sequence (P63284 whole entry): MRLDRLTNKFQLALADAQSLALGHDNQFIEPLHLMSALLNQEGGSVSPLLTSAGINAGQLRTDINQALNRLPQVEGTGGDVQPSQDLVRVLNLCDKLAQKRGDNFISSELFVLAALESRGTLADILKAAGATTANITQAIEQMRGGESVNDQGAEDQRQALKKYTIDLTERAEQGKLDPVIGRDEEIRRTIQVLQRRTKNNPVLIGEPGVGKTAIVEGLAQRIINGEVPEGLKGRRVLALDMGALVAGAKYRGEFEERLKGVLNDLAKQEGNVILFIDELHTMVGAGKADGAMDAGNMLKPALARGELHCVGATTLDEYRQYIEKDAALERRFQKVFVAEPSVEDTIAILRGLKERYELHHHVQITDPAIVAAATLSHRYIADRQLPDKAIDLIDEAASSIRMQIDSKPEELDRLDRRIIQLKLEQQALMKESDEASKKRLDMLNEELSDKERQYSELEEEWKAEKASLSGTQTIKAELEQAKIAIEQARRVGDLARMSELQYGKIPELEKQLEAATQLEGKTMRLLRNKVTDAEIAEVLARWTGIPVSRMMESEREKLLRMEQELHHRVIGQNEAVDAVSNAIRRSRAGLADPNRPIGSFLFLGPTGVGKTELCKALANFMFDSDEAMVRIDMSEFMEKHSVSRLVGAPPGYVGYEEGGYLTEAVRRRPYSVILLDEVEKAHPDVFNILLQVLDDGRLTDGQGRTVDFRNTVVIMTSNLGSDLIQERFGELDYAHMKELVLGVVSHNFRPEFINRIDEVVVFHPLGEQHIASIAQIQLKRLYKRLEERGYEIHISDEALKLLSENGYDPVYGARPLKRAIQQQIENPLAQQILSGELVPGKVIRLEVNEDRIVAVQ

Row | Substance | Kd
1 | ClpB wild-type (from UniProt P63284 1-857) (natural protein) | 330 nM
2 | ClpB-K476C (from UniProt P63284 1-857) (natural protein) | 220 nM
